In PMC12529880, “Structural mechanisms for cold‐adapted activity of phosphoenolpyruvate carboxykinase” (Protein Science : A Publication of the Protein Society, 2025):

Test system: T1, C=C(OP(=O)(O)O)C(=O)O
T1 construct: full length, 622 residues, N-terminal His6-SUMO tag cleaved off with no additional amino acids; codon-optimised gene in pESUMO-Star; E. coli BL21(DE3); EC 4.1.1.32
Assay: purified protein
Assay type: biochemical, Polaromonas naphthalenivorans
Conditions: 25 °C, pH 7.5, 1 mM GDP, 50 mM KHCO3, 4 mM MgCl2, 100 μM MnCl2, PEP carboxylation direction

PnPEPCK (Polaromonas naphthalenivorans CJ2)
Km: 2500 ± 650 µM | kcat: 23 ± 1.4 s⁻¹ | kcat/Km: 9200 M⁻¹ s⁻¹
